1 molecule from article PMC3066130, “Molecular Architecture of the Human Mediator–RNA Polymerase II–TFIIF Assembly” (PLoS Biology, 2011) can be followed below.

In this test the target is T1, human RNA polymerase II (12-subunit enzyme) (human, UniProt P24928 1-1970; P30876 1-1174; P19387 1-275; O15514 1-142; P19388 1-210; P61218 …).
T1 construct: RPB1, largest subunit of human pol II; RPB2, subunit of human pol II; RPB3, subunit of human pol II; RPB4, subunit of human pol II; RPB5, subunit of human pol II; RPB6, subunit of human pol II; RPB7, subunit of human pol II; RPB8, subunit of human pol II; RPB9, subunit of human pol II; RPB10, subunit of human pol II; RPB11, subunit of human pol II; RPB12, subunit of human pol II; The CTD of RPB1 …
Kind of test: co-sedimentation. Particulars: both partners purified.

B1: human TFIIF (Rap74 and Rap30) (complex)
chain 1: MAALGPSSQNVTEYVVRVPKNTTKKYNIMAFNAADKVNFATWNQARLERDLSNKKIYQEEEMPESGAGSEFNRKLREEARRKKYGIVLKEFRPEDQPWLLRVNGKSGRKFKGIKKGGVTENTSYYIFTQCPDGAFEAFPVHNWYNFTPLARHRTLTAEEAEEEWERRNKVLNHFSIMQQRRLKDQDQDEDEEEKEKRGRRKASELRIHDLEDDLEMSSDASDASGEEGGRVPKAKKKAPLAKGGRKKKKKKGSDDEAFEDSDDGDFEGQEVDYMSDGSSSSQEEPESKAKAPQQEEGPKGVDEQSDSSEESEEEKPPEEDKEEEEEKKAPTPQEKKRRKDSSEESDSSEESDIDSEASSALFMAKKKTPPKRERKPSGGSSRGNSRPGTPSAEGGSTSSTLRAAASKLEQGKRVSEMPAAKRLRLDTGPQSLSGKSTPQPPSGKTTPNSGDVQVTEDAVRRYLTRKPMTTKDLLKKFQTKKTGLSSEQTVNVLAQILKRLNPERKMINDKMHFSLKE
chain 2: MAERGELDLTGAKQNTGVWLVKVPKYLSQQWAKASGRGEVGKLRIAKTQGRTEVSFTLNEDLANIHDIGGKPASVSAPREHPFVLQSVGGQTLTVFTESSSDKLSLEGIVVQRAECRPAASENYMRLKRLQIEESSKPVRLSQQLDKVVTTNYKPVANHQYNIEYERKKKEDGKRARADKQHVLDMLFSAFEKHQYYNLKDLVDITKQPVVYLKEILKEIGVQNVKGIHKNTWELKPEYRHYQGEEKSD
notes: Rap74, large subunit of human TFIIF; Rap30, small subunit of human TFIIF; also called dimeric TFIIF complex
B1: the binding result is recorded as “binds”.
